{"source": "IntAct's records for PubMed 31515488", "parents": {"B1": {"name": "Heat shock factor protein 2 (Homo sapiens), Q03933 (parent)", "chain": "MKQSSNVPAFLSKLWTLVEETHTNEFITWSQNGQSFLVLDEQRFAKEILPKYFKHNNMASFVRQLNMYGFRKVVHIDSGIVKQERDGPVEFQHPYFKQGQDDLLENIKRKVSSSKPEENKIRQEDLTKIISSAQKVQIKQETIESRLSELKSENESLWKEVSELRAKHAQQQQVIRKIVQFIVTLVQNNQLVSLKRKRPLLLNTNGAQKKNLFQHIVKEPTDNHHHKVPHSRTEGLKPRERISDDIIIYDVTDDNADEENIPVIPETNEDVISDPSNCSQYPDIVIVEDDNEDEYAPVIQSGEQNEPARESLSSGSDGSSPLMSSAVQLNGSSSLTSEDPVTMMDSILNDNINLLGKVELLDYLDSIDCSLEDFQAMLSGRQFSIDPDLLVDLFTSSVQMNPTDYINNTKSENKGLETTKNNVVQPVSEEGRKSKSKPDKQLIQYTAFPLLAFLDGNPASSVEQASTTASSEVLSSVDKPIEVDELLDSSLDPEPTQSKLVRLEPLTEAEASEATLFYLCELAPAPLDSDMPLLDS"}, "B2": {"name": "Isoform 1 of Destrin (Homo sapiens), P60981-1 (parent)", "chain": "MASGVQVADEVCRIFYDMKVRKCSTPEEIKKRKKAVIFCLSADKKCIIVEEGKEILVGDVGVTITDPFKHFVGMLPEKDCRYALYDASFETKESRKEELMFFLWAPELAPLKSKMIYASSKDAIKKKFQGIKHECQANGPEDLNRACIAEKLGGSLIVAFEGCPV"}, "B3": {"name": "Endoplasmic reticulum resident protein 27 (Homo sapiens), Q96DN0 (parent)", "chain": "MEAAPSRFMFLLFLLTCELAAEVAAEVEKSSDGPGAAQEPTWLTDVPAAMEFIAATEVAVIGFFQDLEIPAVPILHSMVQKFPGVSFGISTDSEVLTHYNITGNTICLFRLVDNEQLNLEDEDIESIDATKLSRFIEINSLHMVTEYNPVTVIGLFNSVIQIHLLLIMNKASPEYEENMHRYQKAAKLFQGKILFILVDSGMKENGKVISFFKLKESQLPALAIYQTLDDEWDTLPTAEVSVEHVQNFCDGFLSGKLLKENRESEGKTPKVEL"}, "B4": {"name": "Guanine nucleotide exchange factor for Rab-3A (Homo sapiens), Q8TBN0 (parent)", "chain": "MWSGPPQPDQGLPPPLAAVPVPWKSTDPCQGHRESPGALVETSAGEEAQGQEGPAAAQLDVLRLRSSSMEIREKGSEFLKEELHRAQKELKLKDEECERLSKVREQLEQELEELTASLFEEAHKMVREANMKQAASEKQLKEARGKIDMLQAEVTALKTLVITSTPASPNRELHPQLLSPTKAGPRKGHSRHKSTSSTLCPAVCPAAGHTLTPDREGKEVDTILFAEFQAWRESPTLDKTCPFLERVYREDVGPCLDFTMQELSVLVRAAVEDNTLTIEPVASQTLPTVKVAEVDCSSTNTCALSGLTRTCRHRIRLGDSKSHYYISPSSRARITAVCNFFTYIRYIQQGLVRQDAEPMFWEIMRLRKEMSLAKLGFFPQEA", "partner": "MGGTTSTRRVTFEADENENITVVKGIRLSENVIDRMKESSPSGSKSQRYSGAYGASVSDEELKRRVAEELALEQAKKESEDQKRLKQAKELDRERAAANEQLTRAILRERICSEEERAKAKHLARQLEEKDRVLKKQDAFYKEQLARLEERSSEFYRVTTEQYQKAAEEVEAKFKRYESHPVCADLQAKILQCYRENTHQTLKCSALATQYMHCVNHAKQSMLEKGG"}, "B5": {"name": "Sorting nexin-15 (Homo sapiens), Q9NRS6 (parent)", "chain": "MSRQAKDDFLRHYTVSDPRTHPKGYTEYKVTAQFISKKDPEDVKEVVVWKRYSDFRKLHGDLAYTHRNLFRRLEEFPAFPRAQVFGRFEASVIEERRKGAEDLLRFTVHIPALNNSPQLKEFFRGGEVTRPLEVSRDLHILPPPLIPTPPPDDPRLSQLLPAERRGLEELEVPVDPPPSSPAQEALDLLFNCESTEEASGSPARGPLTEAELALFDPFSKEEGAAPSPTHVAELATMEVESARLDQEPWEPGGQEEEEDGEGGPTPAYLSQATELITQALRDEKAGAYAAALQGYRDGVHVLLQGVPSDPLPARQEGVKKKAAEYLKRAEEILRLHLSQLPP"}, "B6": {"name": "Mothers against decapentaplegic homolog 4 (Homo sapiens), Q13485 (parent)", "chain": "MDNMSITNTPTSNDACLSIVHSLMCHRQGGESETFAKRAIESLVKKLKEKKDELDSLITAITTNGAHPSKCVTIQRTLDGRLQVAGRKGFPHVIYARLWRWPDLHKNELKHVKYCQYAFDLKCDSVCVNPYHYERVVSPGIDLSGLTLQSNAPSSMMVKDEYVHDFEGQPSLSTEGHSIQTIQHPPSNRASTETYSTPALLAPSESNATSTANFPNIPVASTSQPASILGGSHSEGLLQIASGPQPGQQQNGFTGQPATYHHNSTTTWTGSRTAPYTPNLPHHQNGHLQHHPPMPPHPGHYWPVHNELAFQPPISNHPAPEYWCSIAYFEMDVQVGETFKVPSSCPIVTVDGYVDPSGGDRFCLGQLSNVHRTEAIERARLHIGKGVQLECKGEGDVWVRCLSDHAVFVQSYYLDREAGRAPGDAVHKIYPSAYIKVFDLRQCHRQMQQQAATAQAAAAAQAAAVAGNIPGPGSVGGIAPAISLSAAAGIGVDDLRRLCILRMSFVKGWGPDYPRQSIKETPCWIEIHLHRALQLLDEVLHTMPIADPQPLD"}}}
{"variants_of": "B1", "details": "with mtus2_human MTUS2, Q5JR59"}
{"variant": "V287I", "effect of a mutation on the interaction": "with no effect"}
{"variant": "D222V", "effect of a mutation on the interaction": "with no effect"}
{"variants_of": "B1", "details": "with nup62_human NUP62, P37198"}
{"variant": "V287I", "effect of a mutation on the interaction": "with no effect"}
{"variant": "D222V", "effect of a mutation on the interaction": "with no effect"}
{"variants_of": "B1", "details": "with wdr5_human WDR5, P61964"}
{"variant": "V287I", "effect of a mutation on the interaction": "with no effect"}
{"variant": "D222V", "effect of a mutation on the interaction": "with no effect"}
{"variants_of": "B1", "details": "with tpm3_human TPM3, P06753"}
{"variant": "V287I", "effect of a mutation on the interaction": "with no effect"}
{"variant": "D222V", "effect of a mutation on the interaction": "with no effect"}
{"variants_of": "B2", "details": "with cof2_human CFL2, Q9Y281"}
{"variant": "G139E", "effect of a mutation on the interaction": "with no effect"}
{"variants_of": "B2", "details": "with actb_human ACTB"}
{"variant": "G139E", "effect of a mutation on the interaction": "with no effect"}
{"variants_of": "B2", "details": "with actg_human ACTG1, P63261"}
{"variant": "G139E", "effect of a mutation on the interaction": "with no effect"}
{"variants_of": "B3", "details": "with ef1d_human EEF1D"}
{"variant": "E122K", "effect of a mutation on the interaction": "with no effect"}
{"variants_of": "B3", "details": "with ubql1_human UBQLN1, Q9UMX0"}
{"variant": "E122K", "effect of a mutation on the interaction": "with no effect"}
{"variants_of": "B3", "details": "with sgta_human SGTA"}
{"variant": "E122K", "effect of a mutation on the interaction": "with no effect"}
{"variants_of": "B4", "details": "with mic19_human CHCHD3, Q9NX63"}
{"variant": "Q49R", "effect of a mutation on the interaction": "with no effect"}
{"variant": "S190P", "effect of a mutation on the interaction": "with no effect"}
{"variants_of": "B5", "details": "with reep6_human REEP6, Q96HR9"}
{"variant": "R314C", "effect of a mutation on the interaction": "with no effect"}
{"variant": "R334C", "effect of a mutation on the interaction": "with no effect"}
{"variants_of": "B5", "details": "with ar6p1_human ARL6IP1, Q15041"}
{"variant": "R314C", "effect of a mutation on the interaction": "with no effect"}
{"variant": "R334C", "effect of a mutation on the interaction": "with no effect"}
{"variants_of": "B6", "details": "with smad9_human SMAD9, O15198"}
{"variant": "N13S", "effect of a mutation on the interaction": "with no effect"}
{"variants_of": "B6", "details": "with smad3_human SMAD3, P84022"}
{"variant": "N13S", "effect of a mutation on the interaction": "with no effect"}
